# Measurements from publication PMC5771398, “Structural basis for assembly of the CBF3 kinetochore complex” (The EMBO Journal, 2017).
# Columns and labels:
# Conditions in all cases: protein: recombinant;recombinant;recombinant; tags: C-terminal TEV-cleavable double-StrepTactin tag (cleaved);;; chain copies: 2;1;1; blunt (annealed; only one strand given)
# Cep3 (wild type, core …) [1] = target: T1, Cep3 (wild type, core complex);Ctf13;Skp1 (wild type) (Saccharomyces cerevisiae;Saccharomyces …, UniProt P40969;P35203;P52286 1-608;1-478;1-194, ||); test: competition; EMSA, competitor 0.4-1.2 uM vs 0.1 uM N2; same effect as CCG mutant; EMSA: complex (final buffer 10 mM HEPES, 300 mM NaCl, 1 mM DTT) mixed with DNA, 200 units lambda phosphatase and 1 mM MnCl2, 30 C 30 min, 0.8% agarose gel in TBE; binding pH not stated
# Cep3 (wild type, core …) [2] = target: T1, Cep3 (wild type, core …); test: competition; EMSA, competitor 0.4-1.2 uM vs 0.1 uM N2; EMSA: complex (final buffer 10 mM HEPES, 300 mM NaCl, 1 mM DTT) mixed with DNA, 200 units lambda phosphatase and 1 mM MnCl2, 30 C 30 min, 0.8% agarose gel in TBE; binding pH not stated
# Cep3 (wild type, core …) [3] = target: Cep3 (wild type, core complex);Ctf13;Skp1delta (Saccharomyces cerevisiae;Saccharomyces …, UniProt P40969;P35203;P52286 1-608;1-478;1-194, ||del37-64); test: EMSA; no lambda phosphatase; 1 uM protein, 0.1 uM DNA; EMSA: complex (final buffer 10 mM HEPES, 300 mM NaCl, 1 mM DTT) mixed with DNA, 200 units lambda phosphatase and 1 mM MnCl2, 30 C 30 min, 0.8% agarose gel in TBE; binding pH not stated
# [4] = target: Cep3 deltaGal4;Ctf13;Skp1 (wild type) (Saccharomyces cerevisiae;Saccharomyces …, UniProt P40969;P35203;P52286 47-608;1-478;1-194, ||); test: EMSA; lambda phosphatase, 1 mM MnCl2; 0.3-1 uM protein; EMSA: complex (final buffer 10 mM HEPES, 300 mM NaCl, 1 mM DTT) mixed with DNA, 200 units lambda phosphatase and 1 mM MnCl2, 30 C 30 min, 0.8% agarose gel in TBE; binding pH not stated
# Cep3 (wild type, core …) [5] = target: T1, Cep3 (wild type, core …); test: EMSA; lambda phosphatase, 1 mM MnCl2; 0.3-1 uM protein, 0.1 uM DNA; EMSA: complex (final buffer 10 mM HEPES, 300 mM NaCl, 1 mM DTT) mixed with DNA, 200 units lambda phosphatase and 1 mM MnCl2, 30 C 30 min, 0.8% agarose gel in TBE; binding pH not stated
# T1 sequence (P40969 whole entry, chain 1 of 3): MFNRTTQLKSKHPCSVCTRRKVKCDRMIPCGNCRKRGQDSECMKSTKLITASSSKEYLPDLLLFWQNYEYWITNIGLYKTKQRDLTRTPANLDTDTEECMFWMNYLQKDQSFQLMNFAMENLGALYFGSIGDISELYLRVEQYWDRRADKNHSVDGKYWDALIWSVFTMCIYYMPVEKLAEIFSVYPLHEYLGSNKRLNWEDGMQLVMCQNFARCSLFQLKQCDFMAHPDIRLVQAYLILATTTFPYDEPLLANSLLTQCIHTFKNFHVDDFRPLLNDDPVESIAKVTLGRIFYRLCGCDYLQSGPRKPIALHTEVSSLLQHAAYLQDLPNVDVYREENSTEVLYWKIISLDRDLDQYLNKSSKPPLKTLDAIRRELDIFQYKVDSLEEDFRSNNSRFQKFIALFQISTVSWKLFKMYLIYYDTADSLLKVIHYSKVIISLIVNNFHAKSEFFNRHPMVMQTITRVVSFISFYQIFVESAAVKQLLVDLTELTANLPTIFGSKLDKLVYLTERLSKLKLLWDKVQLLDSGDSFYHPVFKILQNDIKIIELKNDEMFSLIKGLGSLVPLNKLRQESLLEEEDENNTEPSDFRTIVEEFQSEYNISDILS
# T1 sequence (P35203 whole entry, chain 2 of 3): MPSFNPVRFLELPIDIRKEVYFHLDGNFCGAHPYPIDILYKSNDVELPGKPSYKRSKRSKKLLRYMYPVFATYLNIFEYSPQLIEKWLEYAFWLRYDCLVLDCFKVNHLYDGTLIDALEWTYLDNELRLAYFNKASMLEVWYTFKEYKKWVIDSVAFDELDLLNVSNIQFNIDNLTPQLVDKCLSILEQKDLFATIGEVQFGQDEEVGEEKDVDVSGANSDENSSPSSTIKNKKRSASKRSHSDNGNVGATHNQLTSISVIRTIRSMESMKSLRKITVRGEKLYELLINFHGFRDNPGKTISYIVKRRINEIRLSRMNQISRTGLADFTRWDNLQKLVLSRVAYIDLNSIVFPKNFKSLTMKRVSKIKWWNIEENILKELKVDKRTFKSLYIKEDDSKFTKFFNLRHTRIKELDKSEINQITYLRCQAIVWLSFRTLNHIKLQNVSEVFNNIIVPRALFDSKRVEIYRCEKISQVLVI
# T1 sequence (P52286 whole entry, chain 3 of 3): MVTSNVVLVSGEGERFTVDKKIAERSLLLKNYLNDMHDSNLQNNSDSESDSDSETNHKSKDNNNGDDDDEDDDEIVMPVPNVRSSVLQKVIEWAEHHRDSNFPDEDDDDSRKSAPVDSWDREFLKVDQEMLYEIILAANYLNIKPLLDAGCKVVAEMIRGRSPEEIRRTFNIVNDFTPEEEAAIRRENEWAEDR
# Cep3 (wild type, core complex);Ctf13;Skp1delta, sequence (P40969 whole entry, stated change not applied, chain 1 of 3, the tested form may be a part): as the sequence (P40969 whole entry, chain 1 of 3) above
# Cep3 (wild type, core complex);Ctf13;Skp1delta, sequence (P35203 whole entry, stated change not applied, chain 2 of 3, the tested form may be a part): as the sequence (P35203 whole entry, chain 2 of 3) above
# Cep3 (wild type, core complex);Ctf13;Skp1delta, sequence (P52286 other isoform, or with tags, fused parts or gaps ||del37-64 | mutant, chain 3 of 3): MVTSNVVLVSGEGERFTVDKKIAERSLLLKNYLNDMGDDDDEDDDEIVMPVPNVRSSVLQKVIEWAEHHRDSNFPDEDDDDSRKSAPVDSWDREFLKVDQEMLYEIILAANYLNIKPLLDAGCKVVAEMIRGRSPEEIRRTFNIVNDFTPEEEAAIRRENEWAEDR
# Cep3 deltaGal4;Ctf13;Skp1 (wild type), sequence (P40969 47-608, stated change not applied, chain 1 of 3): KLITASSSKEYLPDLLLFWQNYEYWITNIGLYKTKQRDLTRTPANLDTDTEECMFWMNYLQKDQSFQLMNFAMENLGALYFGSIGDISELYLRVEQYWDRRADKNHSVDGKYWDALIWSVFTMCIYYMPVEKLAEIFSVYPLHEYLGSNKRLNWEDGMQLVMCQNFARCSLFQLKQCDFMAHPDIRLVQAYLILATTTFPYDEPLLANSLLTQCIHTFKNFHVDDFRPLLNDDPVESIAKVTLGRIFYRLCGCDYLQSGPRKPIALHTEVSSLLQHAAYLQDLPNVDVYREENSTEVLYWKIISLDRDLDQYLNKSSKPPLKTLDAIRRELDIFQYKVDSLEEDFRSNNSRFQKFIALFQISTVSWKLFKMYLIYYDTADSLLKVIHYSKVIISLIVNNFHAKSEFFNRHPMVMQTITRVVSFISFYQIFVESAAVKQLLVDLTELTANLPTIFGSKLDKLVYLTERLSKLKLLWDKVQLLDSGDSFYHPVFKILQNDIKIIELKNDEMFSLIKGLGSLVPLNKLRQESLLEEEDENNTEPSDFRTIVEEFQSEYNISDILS
# Cep3 deltaGal4;Ctf13;Skp1 (wild type), sequence (P35203 whole entry, stated change not applied, chain 2 of 3, the tested form may be a part): as the sequence (P35203 whole entry, chain 2 of 3) above
# Cep3 deltaGal4;Ctf13;Skp1 (wild type), sequence (P52286 whole entry, stated change not applied, chain 3 of 3, the tested form may be a part): as the sequence (P52286 whole entry, chain 3 of 3) above
binder,measurement,setting,value
33 bp double mutant CEN3 (dsDNA) DNA 1: AAATATTAGAACATTTGATTTGATAAAGTTAAA DNA 2: TTTAACTTTATCAAATCAAATGTTCTAATATTT,binding result,"Cep3 (wild type, core …) [1]",no binding
"33 bp wild-type CEN3, unlabelled competitor (dsDNA) DNA 1: AAATATTAGTGTATTTGATTTCCGAAAGTTAAA DNA 2: TTTAACTTTCGGAAATCAAATACACTAATATTT",binding result,"Cep3 (wild type, core …) [2]",binds
33 bp CCG mutant CEN3 (dsDNA) DNA 1: AAATATTAGTGTATTTGATTTGATAAAGTTAAA DNA 2: TTTAACTTTATCAAATCAAATACACTAATATTT,binding result,"Cep3 (wild type, core …) [2]",no binding
56 bp WT CEN3 (dsDNA) DNA 1: TATTAGTGTATTTGATTTCCGAAAGTTAAAAAAGAAATAGTAAGAAATATATATTT DNA 2: AAATATATATTTCTTACTATTTCTTTTTTAACTTTCGGAAATCAAATACACTAATA,binding result,"Cep3 (wild type, core …) [3]",binds
same,binding result,[4],no binding
same,binding result,"Cep3 (wild type, core …) [5]",binds
